{
  "source": "patent US20260275312",
  "about": "“CRISPR NUCLEASE POLYPEPTIDES AND GENE EDITING SYSTEMS COMPRISING SUCH” (ARBOR BIOTECHNOLOGIES, INC., published 2026)",
  "key": {"[1]": {"target": "T1, Nuclease H D912R (synthetic construct, D912R)", "T1 chain": "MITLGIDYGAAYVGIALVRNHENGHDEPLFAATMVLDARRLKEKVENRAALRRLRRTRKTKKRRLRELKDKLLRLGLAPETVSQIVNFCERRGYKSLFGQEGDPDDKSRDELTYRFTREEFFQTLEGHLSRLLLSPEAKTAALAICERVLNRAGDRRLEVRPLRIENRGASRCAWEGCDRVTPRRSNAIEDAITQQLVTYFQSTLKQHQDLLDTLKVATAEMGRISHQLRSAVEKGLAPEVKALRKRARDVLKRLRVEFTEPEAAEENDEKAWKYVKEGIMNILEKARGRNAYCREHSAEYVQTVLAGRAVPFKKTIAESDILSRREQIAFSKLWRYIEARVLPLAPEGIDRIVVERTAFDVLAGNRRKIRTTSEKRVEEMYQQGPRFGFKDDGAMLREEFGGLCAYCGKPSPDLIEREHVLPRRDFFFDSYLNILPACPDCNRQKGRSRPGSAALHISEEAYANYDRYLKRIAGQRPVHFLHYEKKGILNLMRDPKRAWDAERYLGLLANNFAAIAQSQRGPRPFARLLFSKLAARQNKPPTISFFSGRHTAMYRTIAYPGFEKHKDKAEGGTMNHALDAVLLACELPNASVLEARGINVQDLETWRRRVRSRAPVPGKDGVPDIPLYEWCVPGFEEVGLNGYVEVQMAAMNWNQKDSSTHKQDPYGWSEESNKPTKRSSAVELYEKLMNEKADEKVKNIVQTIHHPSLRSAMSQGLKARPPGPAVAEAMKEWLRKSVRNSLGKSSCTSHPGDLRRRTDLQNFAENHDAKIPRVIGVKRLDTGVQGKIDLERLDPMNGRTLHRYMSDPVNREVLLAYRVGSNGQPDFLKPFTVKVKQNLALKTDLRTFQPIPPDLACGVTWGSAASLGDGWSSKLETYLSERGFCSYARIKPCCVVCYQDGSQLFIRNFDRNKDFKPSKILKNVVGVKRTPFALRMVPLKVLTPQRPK", "experiment": "cell_activity; HEK293T; PAM AAC", "conditions": "tags: N-term SV40 NLS, XTEN linker + C-term nucleoplasmin NLS", "procedure": "HEK293T cells were transfected with plasmids expressing the Nuclease H polypeptides and the gRNAs provided herein following the methods provided in Example 1 above. Gene editing efficiencies were determined by NGS following the methods also provided in Example 1. The NGS results were analyzed also following the methods provided in Example 1 above.\nIndel ratios, referring to the percentage of NGS reads comprising indels, were calculated for the reference and for each variant. The indel ratios used for fold change calculations were the average of two technical replicates. To then calculate fold change in indel ratios, the indel ratio for each variant was divided by the indel ratio for the reference. […] Numbering is relative to the reference nuclease of SEQ ID NO: 64 (i.e., without an NLS)."}, "[2]": {"target": "T2, Nuclease H (synthetic construct)", "T2 chain": "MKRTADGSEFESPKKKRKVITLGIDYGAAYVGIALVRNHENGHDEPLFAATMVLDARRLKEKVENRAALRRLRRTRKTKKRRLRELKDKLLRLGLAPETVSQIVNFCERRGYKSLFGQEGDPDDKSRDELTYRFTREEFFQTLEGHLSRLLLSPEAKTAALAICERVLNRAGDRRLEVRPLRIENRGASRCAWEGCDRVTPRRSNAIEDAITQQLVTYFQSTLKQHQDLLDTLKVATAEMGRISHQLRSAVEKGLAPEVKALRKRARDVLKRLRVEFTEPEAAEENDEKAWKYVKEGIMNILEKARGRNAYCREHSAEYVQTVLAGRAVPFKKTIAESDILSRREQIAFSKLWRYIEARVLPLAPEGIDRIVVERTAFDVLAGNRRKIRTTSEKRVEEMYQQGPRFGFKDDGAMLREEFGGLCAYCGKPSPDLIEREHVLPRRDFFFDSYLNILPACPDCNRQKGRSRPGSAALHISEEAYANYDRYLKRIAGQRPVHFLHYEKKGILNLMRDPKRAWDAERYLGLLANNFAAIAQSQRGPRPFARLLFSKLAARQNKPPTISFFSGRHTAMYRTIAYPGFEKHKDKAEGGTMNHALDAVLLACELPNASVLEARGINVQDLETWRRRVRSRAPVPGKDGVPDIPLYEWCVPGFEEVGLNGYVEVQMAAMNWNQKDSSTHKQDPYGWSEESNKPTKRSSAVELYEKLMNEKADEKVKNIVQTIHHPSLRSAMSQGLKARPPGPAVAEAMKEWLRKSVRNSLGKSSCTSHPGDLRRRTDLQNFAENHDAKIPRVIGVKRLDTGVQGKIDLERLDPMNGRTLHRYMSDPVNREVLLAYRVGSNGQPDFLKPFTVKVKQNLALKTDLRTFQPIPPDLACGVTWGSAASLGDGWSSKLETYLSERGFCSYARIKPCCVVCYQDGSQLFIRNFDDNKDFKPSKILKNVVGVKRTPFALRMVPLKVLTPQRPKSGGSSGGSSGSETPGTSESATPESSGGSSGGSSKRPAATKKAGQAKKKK", "experiment": "cell_activity; HEK293T; PAM AAC 3'; Table 16 SEQ IDs shifted, guide taken from Table 15", "conditions": "tags: N-term SV40 NLS, XTEN linker + C-term nucleoplasmin NLS"}},
  "data": [
    {"binder": "H AAVS1-T5 RNA guide ; AAVS1-T5 target (H) (ssRNA ; dsDNA) RNA: GGCUAUAAUCCAUGCUGACCGUUUCAAUCAACCUGAUCUCUCUGCUUGCGCUGCAGGCUUCAUAAGAUCAGUAGGUUGAAAAGAGCAUCCGUCCGACAUGCACUCCGGGAUGGGGCAGUCCCGGCUCUUGCGGUUCCCGAUGCAGUUAUGUGUCCGCGGAACACGGUGUCGGACACGUCGCAAGACAGGAUGUGAGCCCAUUAUCCACAUUAGGAUCAAUGUACGCAUGAGCAGUCCGCAAUGCCGGGGACGCU DNA 1: GGCTATAATCCATGCTGACC DNA 2: GGTCAGCATGGATTATAGCC", "values": [
      {"measurement": "fold change in indel ratio vs reference", "setting": "[1]", "result": 4.21, "unit": "fold indel vs reference"},
      {"measurement": "activity", "setting": "[2]", "result": 0.0105, "unit": "indel ratio"}
    ]}
  ]
}
